Tests used:
[1] = target: Gβ1 and YFP-Gγ2 expressed from the Gβ1-2A-YFP-Gγ2 unit; experiment: FRET or BRET; FLIM of the mTurquoise donor (phase and modulation lifetimes) in living HeLa cells, room temperature; all three subunits from the single plasmid Gα-IRES-Gβ-2A-Gγ
[2] = target: Gβ1 and YFP-Gγ2 expressed from the Gβ1-2A-YFP-Gγ2 unit; experiment: FRET or BRET; FLIM of the mTurquoise donor (phase and modulation lifetimes) in living HeLa cells, room temperature; all three subunits from the single plasmid Gβ-2A-Gγ-IRES-Gα

In the case of “Gαq-mTurquoiseΔ6 (from UniProt P50148 1-359) (natural protein)”, the FRET efficiency from the modulation lifetime (E τM) [1] is reported as 7%, the FRET efficiency from the phase lifetime (E τϕ) [1] is reported as 14% and the FRET efficiency from the modulation lifetime (E τM) [2] is reported as 19%. The FRET efficiency from the phase lifetime (E τϕ) [2] was 27%.

— PMC3219669
